Changes are numbered by the printed parent chain.
B1: B1F8 heavy chain single-domain antibody (VHH)
VHH: QVQLVESGGGLVQPGGSLRLSCAASGSIFGVFYMGWFRQAPGKQREMVAISTDDRTSYVDSVKGRFTISRDNAKNTLALQMNSLKPEDTAVYFCNLNQLGTDYWGPGTQVTVSS
notes: Tested as crude supernatant of IPTG-induced E. coli TG1 carrying the pComb3XSS clone; also called BIF8
B2: B3F3 heavy chain single-domain antibody (VHH)
VHH: B1 VHH with G16E, A23T, E46D, V59A
notes: Tested as crude supernatant of IPTG-induced E. coli TG1 carrying the pComb3XSS clone
B3: B3D6 heavy chain single-domain antibody (VHH)
VHH: EVQLVESGGGLVQAGGSLRLSCAASGRSFSSLAVGWFRQPPGKKREIVAAVNWSGTSTYYPDSVKGRFSISRDNTKNTVYLQMNSLKPEDTAVYYCAADPDLRWLKLWGYEYWGQGTQVTVSS
notes: as for B2
B4: B2G8 heavy chain single-domain antibody (VHH)
VHH: QVQLVESGGGLVQPGGSLRLSCAASGISFSYYDMGWFRQAPGKQRELVAIVTSGGRTNYADSVKGRFTISRETAKSTMYLQMNSLKSEDTGVYYCNAHWIVTTDYWGQGTQVTVAS
notes: as for B2
B5: B2C2 heavy chain single-domain antibody (VHH)
VHH: QLQLVESGGGLVQPGGSLRLSCAGSGIAFSRVTMAWSRQAPGKQRELVALITDGNRSAYVDSVKGRFTISRDNTKKTMSLQMNDLKPEDTAVYYCVATDWVPTRRDYWGQGTQVTVSS
notes: as for B2
B6: B1B7 heavy chain single-domain antibody (VHH)
VHH: QVQLVESGGGLVQPGGSLTLSCTASGSMFSFYTMGWYRQATGKQRELVAGISLGGETTYAPSVKDRFTISRDNAKNTVYLQMNSLKPEDTALYNCNAYWGEDYWGQGTQVTVSS
notes: as for B2
B7: B2A1 heavy chain single-domain antibody (VHH)
VHH: QVQLVESGGGLVQPGGSLRLSCAASGITFSHYDMAWFRQAPEKQRELVALITSGGKTAYADSVKGRFAISRDNAKNTVYLQMNSLKAGDTAVYYCNAHWVLTSQYWGQGTQVTVSS
notes: as for B2
B8: B1C5 heavy chain single-domain antibody (VHH)
VHH: EVQLVESGGGEVRPGGSLRLSCVVSGFTKDYGAIGWFRQAPGQEREGLGCIARKDGDTWSADSVKGRFTISRDNVRNTVYLQMNALKPEDRGVYYCAGDPSALYGCSDRSSEYQYWGQGTQVTVSS
notes: as for B2
B9: B2F6 heavy chain single-domain antibody (VHH)
VHH: EVQLVESGGGLVQPGGSLRLSCAASGFTFSYYVASWYRQAPGKERELVATTFPPDGSPHYADSVKGRFAISRDNAKNTVFLQMDSLKSEDTAVYYCNARRVEGHGIYWGQGTQVTVSS
B10: B2H1 heavy chain single-domain antibody (VHH)
VHH: QLQLVESGGGLVQPGESLRLSCAASGIIFSASTMAWFRQAPGKQRELVALITDGDRTNYADSVKGRFTISRDNAENTVYLQMTELKFEDTAVYYCNAFWLKAYWGQGTQVTVSS
notes: as for B2
B11: B2A2 heavy chain single-domain antibody (VHH)
VHH: EVQVVESGGAAVQPGESLRLSCAASGSIFNTATMGWFRQAPGKQREMVAIITDGGRTNYADSVKGRFTISRDATKNTVYLQMNSLNPGDTAVYYCNALTIVPRSSIYWGQGTQVTVSS
notes: as for B2
B12: B3D2 heavy chain single-domain antibody (VHH)
VHH: QLQLVESGGGLVQPGGSLTLSCLASGFTFSHYPMSWVRQAPGKGLEWVSVIGSDGAIKHYSDSVKGRFAISRDNAKNTLYLQMNSLKPEDTAVYYCAEGDSRYVRNRARGQGTQVTVSS
notes: as for B2
B13: B3C5 heavy chain single-domain antibody (VHH)
VHH: B12 VHH with L23A, A56G, I57T, H59I, S71A, N106G, A108T
B14: B3F1 heavy chain single-domain antibody (VHH)
VHH: B12 VHH with L23A, H31L, A56G, I57T, N106G, A108T
B15: B2A9 heavy chain single-domain antibody (VHH)
VHH: QLQLVESGGGLVQPGGSLRLSCTASGSTFEIYPIYAMAWFRQTPGKQRELVALTTDVKTNYADSVKGRFTISRDNAKNTVYLQMNMLQPEDTAVYVCNVGVVRGGLQNYWGQGTQVTVSS
notes: as for B2
B16: B2C9 heavy chain single-domain antibody (VHH)
VHH: EVQVVESGGGLVQPGGSLRLSCAASASVFSWSVMGWFRQAPGKQRELVAISSGDRETYADSVKGRFTISRDNAKNTVYLQMDTLKPEDTAVYFCNAYVPVGESRGDYWGQGTQVTVSS
notes: as for B2
B17: B1B8 heavy chain single-domain antibody (VHH)
VHH: EVQVVESGGGLVQPGGSLTLSCVASGFAFSFTPMRWVRQAPGKGLEWVSSISIRGDTTDYADSVKGRFTISRDNAKNTLYLQMNSLKPEDTAVYYCSRGSSISTSTERTQGTQVTVSS
notes: as for B2
B18: B2A1 anti-TGFβ single domain heavy-chain antibody (variable region, linker peptide, human IgG1 heavy chain constant region) (Fc fusion)
heavy: B7 VHH
notes: not shown: linker peptide (GGGGS)n, n=1, 2 or 3; human IgG1 heavy chain constant region, GenBank No. AK303185.1
B19: B2A9 anti-TGFβ single domain heavy-chain antibody (variable region, linker peptide, human IgG1 heavy chain constant region) (Fc fusion)
heavy: B15 VHH
notes: as for B18
B20: B2C9 anti-TGFβ single domain heavy-chain antibody (variable region, linker peptide, human IgG1 heavy chain constant region) (Fc fusion)
heavy: B16 VHH
notes: as for B18
B21: B2F6 anti-TGFβ single domain heavy-chain antibody (variable region, linker peptide, human IgG1 heavy chain constant region) (Fc fusion)
heavy: B9 VHH
notes: as for B18
B22: B3F1 anti-TGFβ single domain heavy-chain antibody (variable region, linker peptide, human IgG1 heavy chain constant region) (Fc fusion)
heavy: B12 VHH with L23A, H31L, A56G, I57T, N106G, A108T
notes: as for B18
B23: B3C5 anti-TGFβ single domain heavy-chain antibody (variable region, linker peptide, human IgG1 heavy chain constant region) (Fc fusion)
heavy: B12 VHH with L23A, A56G, I57T, H59I, S71A, N106G, A108T
notes: as for B18

Experiments:
BSA = BSA (UniProt P02769); assay: ELISA; plate coated with BSA (control); E. coli supernatant; HRP anti-VHH
[1] = molecular target: T1, TGFβ1 protein (GenScript Z03411) (human, UniProt P01137 279-390); assay: ELISA; plate coated with TGFβ1; E. coli supernatant; HRP anti-VHH
T1 construct: also called human TGF-β1; TGFβ1 antigen
Procedure: A microplate was coated with 2 μL/well of the TGFβ1 protein solution and BSA, respectively, at 4° C. overnight; the supernatant was discarded, 300 μL of a blocking solution (PBS containing 3% BSA) was added to each well, and the plate was blocked at 37° C. for 2 h; the supernatant collected by centrifugation was added to the well of the microplate at 200 μL per well, the plate was left to stand and incubated at room temperature for 2 h, and the supernatant was discarded; the plate was washed for 3 times with 200 μL/well PBST (PBS containing 0.1% Tween 20); a diluted HRP-labeled anti-VHH secondary antibody (Genscript, A01861) was added, the secondary antibody was used after a 1:10000 dilution, the diluent was PBS containing 1% BSA, the volume was 100 μL/well, and the plate was incubated at room temperature for 1 h; the plate was washed for 5 times with 200 μL/well PBST; a TMB chromogenic solution (BD, 55214) was added at 100 μL/well for color development at 37° C. for 8 min. 2 M HCl stop solution was added at 100 μL/well. After the addition of the stop solution, the 450 nm values were read using a microplate reader within 30 min.

[2] = molecular target: T1, TGFβ1 protein (GenScript Z03411); assay: ELISA; plate coated with human TGF-β1; antibody titrated; HRP anti-human Fc
Procedure: (§1) A microplate was coated with 2 μL/well of the human TGF-β1/2/3 protein solution, respectively, at 4° C. overnight; the supernatant was discarded, 300 μL of a blocking solution (PBS containing 3% BSA) was added to each well, and the plate was blocked at 37° C. for 2 h; the antibodies were gradiently diluted, and the diluent was PBS containing 1% BSA. For example, the initial concentration of the antibody dilution was 500 nM, and diluted 10-fold to obtain 8 concentration gradients. The diluted antibody was added to the well of the microplate at 200 μL per well, the plate was left to stand and incubated at room temperature for 2 h, and the supernatant was discarded; the plate was washed for 3 times with 200 μL/well PBST (PBS containing 0.1% Tween 20); a diluted HRP-labeled anti-human Fc secondary antibody (SIGMA, A8667) was added, the secondary antibody was used after a 1:20000 dilution, the diluent was PBS containing 1% BSA, the volume was 100 μL/well, and the plate was incubated at room temperature for 1 h; the plate was washed for 5 times with 200 μL/well PBST; a TMB chromogenic solution (BD, 55214) was added at 100 μL/well for color development at 37° C. for 8 min. 2 M HCl stop solution was added at 100 μL/well. After the addition of the stop solution, the 450 nm values were read using a microplate reader within 30 min. Data were analyzed using GraphPad Prism 6.0 software and avidity fitting was performed to give EC50 values.

[3] = molecular target: T2, TGFβ2 protein (GenScript Z03429) (human, UniProt P61812 303-414); assay: ELISA; plate coated with human TGF-β2; antibody titrated; HRP anti-human Fc
T2 construct: also called human TGF-β2
T2 sequence (looked up): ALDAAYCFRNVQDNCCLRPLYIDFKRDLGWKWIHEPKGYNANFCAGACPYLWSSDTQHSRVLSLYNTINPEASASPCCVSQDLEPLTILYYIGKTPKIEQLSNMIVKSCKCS
Procedure: as §1

[4] = molecular target: T3, TGFβ3 protein (GenScript Z03430) (human, UniProt P10600 301-412); assay: ELISA; plate coated with human TGF-β3; antibody titrated; HRP anti-human Fc
T3 construct: also called human TGF-β3
T3 sequence (looked up): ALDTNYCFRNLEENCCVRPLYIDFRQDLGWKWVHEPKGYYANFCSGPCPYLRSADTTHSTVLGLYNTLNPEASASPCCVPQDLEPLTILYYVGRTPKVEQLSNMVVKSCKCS
Procedure: as §1

T1 sequence (P01137 279-390 limits assumed, one chain of several): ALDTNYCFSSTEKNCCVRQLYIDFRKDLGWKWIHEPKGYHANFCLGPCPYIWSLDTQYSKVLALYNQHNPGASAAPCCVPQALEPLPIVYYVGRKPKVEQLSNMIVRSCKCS
BSA, sequence (P02769 25-607 limits assumed): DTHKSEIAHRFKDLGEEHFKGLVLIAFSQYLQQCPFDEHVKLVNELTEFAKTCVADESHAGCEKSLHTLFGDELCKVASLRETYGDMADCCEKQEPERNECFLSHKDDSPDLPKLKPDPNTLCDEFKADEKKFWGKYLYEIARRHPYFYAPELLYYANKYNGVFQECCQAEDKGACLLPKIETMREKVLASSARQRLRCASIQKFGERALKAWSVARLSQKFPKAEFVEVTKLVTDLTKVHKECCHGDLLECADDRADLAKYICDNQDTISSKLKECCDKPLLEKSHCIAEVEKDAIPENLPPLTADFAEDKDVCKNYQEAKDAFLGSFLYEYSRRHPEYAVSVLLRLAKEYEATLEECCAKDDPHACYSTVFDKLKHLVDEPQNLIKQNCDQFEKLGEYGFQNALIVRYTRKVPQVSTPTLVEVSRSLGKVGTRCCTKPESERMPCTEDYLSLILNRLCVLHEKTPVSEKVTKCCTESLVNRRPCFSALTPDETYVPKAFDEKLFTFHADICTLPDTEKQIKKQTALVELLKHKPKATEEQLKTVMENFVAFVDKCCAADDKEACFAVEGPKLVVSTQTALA

| Binder | OD value of binding to BSA (BSA) [OD 450 nm] | OD value of binding to TGFβ1 [1] [OD 450 nm] | EC50 [2] [nM] | EC50 [3] [nM] | EC50 [4] [nM] |
| --- | --- | --- | --- | --- | --- |
| B1 | 0.07 | 1.03 | – | – | – |
| B2 | 0.071 | 2.29 | – | – | – |
| B3 | 0.067 | 1.65 | – | – | – |
| B4 | 0.064 | 1.85 | – | – | – |
| B5 | 0.058 | 2.05 | – | – | – |
| B6 | 0.067 | 1.95 | – | – | – |
| B7 | 0.057 | 1.29 | – | – | – |
| B8 | 0.052 | 2.08 | – | – | – |
| B9 | 0.053 | – | – | – | – |
| B10 | 0.057 | 2.06 | – | – | – |
| B11 | 0.064 | 1.69 | – | – | – |
| B12 | 0.061 | 1.99 | – | – | – |
| B13 | 0.051 | – | – | – | – |
| B14 | 0.051 | – | – | – | – |
| B15 | 0.061 | 1.92 | – | – | – |
| B16 | 0.055 | 1.88 | – | – | – |
| B17 | 0.063 | 1.92 | – | – | – |
| B18 | – | – | 3.82 | 1.07 | 1.25 |
| B19 | – | – | 5.43 | 1.25 | 1.46 |
| B20 | – | – | 4.83 | 1.42 | 1.21 |
| B21 | – | – | – | 0.774 | 1.03 |
| B22 | – | – | – | 148 | 1.33 |
| B23 | – | – | – | 3.52 | 1.35 |

Source: patent publication US20250026820A1 (WUHAN YZY BIOPHARMA, published 2025)
